Data published in paper PMC3682517.

Molecular target: GST-AKAP79
Assay: phage display recovery; RII phage recovered by GST-AKAP79 compared with GST alone; pilot study (supplemental Fig. S1B)

Sequence of GST-AKAP79 (P24588 whole entry): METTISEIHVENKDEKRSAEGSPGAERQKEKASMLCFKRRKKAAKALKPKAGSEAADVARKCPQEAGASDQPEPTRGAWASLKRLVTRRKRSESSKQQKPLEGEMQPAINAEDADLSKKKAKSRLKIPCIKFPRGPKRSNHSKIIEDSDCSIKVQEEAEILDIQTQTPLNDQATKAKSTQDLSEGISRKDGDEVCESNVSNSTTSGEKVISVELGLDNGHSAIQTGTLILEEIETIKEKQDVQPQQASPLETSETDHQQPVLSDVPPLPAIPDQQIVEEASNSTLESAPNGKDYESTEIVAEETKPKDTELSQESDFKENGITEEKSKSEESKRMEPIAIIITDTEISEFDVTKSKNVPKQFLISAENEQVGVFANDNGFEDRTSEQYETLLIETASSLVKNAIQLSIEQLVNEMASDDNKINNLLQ
Sequence of RII phage: PKA RIIα (residues 1–45) displayed on the T7 capsid protein (P13861 2-404): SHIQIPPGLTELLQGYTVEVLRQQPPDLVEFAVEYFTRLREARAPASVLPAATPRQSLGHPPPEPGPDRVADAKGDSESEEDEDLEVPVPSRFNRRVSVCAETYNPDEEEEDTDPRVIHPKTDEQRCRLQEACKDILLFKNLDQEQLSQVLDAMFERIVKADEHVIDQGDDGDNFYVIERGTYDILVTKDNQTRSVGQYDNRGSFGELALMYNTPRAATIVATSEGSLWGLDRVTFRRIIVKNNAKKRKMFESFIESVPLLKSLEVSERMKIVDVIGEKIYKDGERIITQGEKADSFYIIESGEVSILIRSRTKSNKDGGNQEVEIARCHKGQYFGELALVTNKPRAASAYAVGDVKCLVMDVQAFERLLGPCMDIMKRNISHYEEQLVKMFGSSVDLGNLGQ

RII phage: PKA RIIα (residues 1–45) displayed on the T7 capsid protein (from UniProt P13861 1-45) (domain or fragment)
fold more phage recovered than with GST alone: 300 fold
